Assay results: US20260226500A1
Several values for one entry are separate records, joined by “and”; a condition that tells them apart may be missing. Equal values may be shown once.

Tests used:
[1] = target: OT-1 TCR (OVA-restricted T cell receptor) (mouse)
[2] = target: P14 TCR (gp33-specific T cell receptor) (mouse)
Sequence of P14 TCR (gp33-specific T cell receptor) (mouse) (chain, as listed by the source limits assumed): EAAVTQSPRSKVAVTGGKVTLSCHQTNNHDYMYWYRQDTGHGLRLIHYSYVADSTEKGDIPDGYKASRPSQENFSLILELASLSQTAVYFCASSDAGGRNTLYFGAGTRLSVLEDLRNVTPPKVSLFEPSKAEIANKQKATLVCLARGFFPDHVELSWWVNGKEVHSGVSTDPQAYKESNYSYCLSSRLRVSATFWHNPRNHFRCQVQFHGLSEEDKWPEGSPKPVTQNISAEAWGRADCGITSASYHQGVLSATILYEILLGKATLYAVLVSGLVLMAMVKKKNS

Sequence of OT-1 TCR (OVA-restricted T cell receptor) (mouse) (chain, as listed by the source limits assumed, chain 1 of 2): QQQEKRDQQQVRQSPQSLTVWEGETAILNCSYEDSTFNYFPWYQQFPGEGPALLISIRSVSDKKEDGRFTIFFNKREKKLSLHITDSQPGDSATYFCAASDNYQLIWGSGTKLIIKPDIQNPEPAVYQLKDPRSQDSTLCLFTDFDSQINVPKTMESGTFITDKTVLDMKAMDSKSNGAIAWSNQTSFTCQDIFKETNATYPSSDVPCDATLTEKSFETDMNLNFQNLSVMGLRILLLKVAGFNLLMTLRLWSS
Sequence of OT-1 TCR (OVA-restricted T cell receptor) (mouse) (chain, as listed by the source limits assumed, chain 2 of 2): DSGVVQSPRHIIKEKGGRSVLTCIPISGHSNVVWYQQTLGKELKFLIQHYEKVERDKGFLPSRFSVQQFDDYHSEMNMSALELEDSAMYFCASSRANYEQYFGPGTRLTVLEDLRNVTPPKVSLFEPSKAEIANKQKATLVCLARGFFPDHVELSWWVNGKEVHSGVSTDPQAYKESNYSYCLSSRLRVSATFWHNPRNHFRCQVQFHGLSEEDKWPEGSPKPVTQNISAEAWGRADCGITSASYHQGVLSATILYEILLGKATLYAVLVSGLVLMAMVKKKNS

Substance	percent OVA Pentamer+ GFP+ cells (Q2) (% (unit not given)) [1]	percent OVA Pentamer+ GFP- cells (Q3, upper left quadrant) (% (unit not given)) [1]	percent P14 TCR+ GFP- cells (Q1) (% (unit not given)) [2]
OVA Pentamer (peptide-MHC)	6.66	26	–
P14 TCR (y-axis stain) (antibody)	–	–	89.5 and 96.7 and 36.5
